Earlier results as cited in patent US20220031761A1, “COMPOSITIONS FOR PROMOTING SKIN REGENERATION, SKIN REJUVENATION, AND WOUND HEALING AND METHODS FOR PREPARATION AND USE THEREOF” (priority 2018, published 2022).

Settings: in vivo

HGF: growth factor secreted by mesenchymal cells, eluted by placental and umbilical tissue
half-life of HGF: approximately 3 hours
